Results: patent US20130129752A1

Assays:
Test in all cases: cell-based or functional assay
[1] = biological target: human HA LFA-1 stably expressed on K562 cells (K562-HA LFA-1) (human) (UniProt P20701)
[2] = biological target: human WT LFA-1 (alpha L beta 2) on cells, activation state not specified at the place cited (human) (UniProt P20701)
[3] = biological target: human LFA-1 on cells in the unstimulated, low-affinity conformation (human) (UniProt P20701)
Sequence of human LFA-1 on cells in the unstimulated, low-affinity conformation (human) (P20701 26-1170, chain 1 of 2): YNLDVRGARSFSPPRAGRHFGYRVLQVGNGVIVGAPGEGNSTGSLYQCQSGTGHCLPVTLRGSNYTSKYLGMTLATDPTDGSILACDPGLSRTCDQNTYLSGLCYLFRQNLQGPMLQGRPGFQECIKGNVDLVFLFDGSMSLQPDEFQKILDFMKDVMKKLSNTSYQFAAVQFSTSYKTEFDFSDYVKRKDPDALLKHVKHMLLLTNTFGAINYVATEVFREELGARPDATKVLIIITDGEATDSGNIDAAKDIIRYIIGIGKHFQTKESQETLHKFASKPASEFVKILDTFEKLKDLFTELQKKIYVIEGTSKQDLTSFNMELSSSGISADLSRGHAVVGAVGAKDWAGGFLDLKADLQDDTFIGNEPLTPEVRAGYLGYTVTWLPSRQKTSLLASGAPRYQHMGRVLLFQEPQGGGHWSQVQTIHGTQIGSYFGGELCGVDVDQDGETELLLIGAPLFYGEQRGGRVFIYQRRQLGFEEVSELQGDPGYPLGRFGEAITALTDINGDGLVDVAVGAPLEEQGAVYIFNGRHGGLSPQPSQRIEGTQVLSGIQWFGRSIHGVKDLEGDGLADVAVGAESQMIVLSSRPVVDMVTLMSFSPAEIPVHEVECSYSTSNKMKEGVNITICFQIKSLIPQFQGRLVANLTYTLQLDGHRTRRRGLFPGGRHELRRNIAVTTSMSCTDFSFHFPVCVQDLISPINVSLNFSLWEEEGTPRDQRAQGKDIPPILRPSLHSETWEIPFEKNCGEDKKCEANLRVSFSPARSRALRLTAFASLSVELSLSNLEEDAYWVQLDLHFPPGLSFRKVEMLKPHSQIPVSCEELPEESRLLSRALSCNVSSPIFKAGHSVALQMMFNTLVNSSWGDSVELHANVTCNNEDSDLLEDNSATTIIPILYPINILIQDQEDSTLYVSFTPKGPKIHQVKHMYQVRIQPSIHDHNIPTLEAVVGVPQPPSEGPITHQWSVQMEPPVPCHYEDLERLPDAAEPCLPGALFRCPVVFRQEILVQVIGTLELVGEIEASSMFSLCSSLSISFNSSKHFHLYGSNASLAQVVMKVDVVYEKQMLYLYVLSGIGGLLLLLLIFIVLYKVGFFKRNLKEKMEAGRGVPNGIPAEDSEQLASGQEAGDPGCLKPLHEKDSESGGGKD
Sequence of human LFA-1 on cells in the unstimulated, low-affinity conformation (human) (P05107 23-769, chain 2 of 2, further chain): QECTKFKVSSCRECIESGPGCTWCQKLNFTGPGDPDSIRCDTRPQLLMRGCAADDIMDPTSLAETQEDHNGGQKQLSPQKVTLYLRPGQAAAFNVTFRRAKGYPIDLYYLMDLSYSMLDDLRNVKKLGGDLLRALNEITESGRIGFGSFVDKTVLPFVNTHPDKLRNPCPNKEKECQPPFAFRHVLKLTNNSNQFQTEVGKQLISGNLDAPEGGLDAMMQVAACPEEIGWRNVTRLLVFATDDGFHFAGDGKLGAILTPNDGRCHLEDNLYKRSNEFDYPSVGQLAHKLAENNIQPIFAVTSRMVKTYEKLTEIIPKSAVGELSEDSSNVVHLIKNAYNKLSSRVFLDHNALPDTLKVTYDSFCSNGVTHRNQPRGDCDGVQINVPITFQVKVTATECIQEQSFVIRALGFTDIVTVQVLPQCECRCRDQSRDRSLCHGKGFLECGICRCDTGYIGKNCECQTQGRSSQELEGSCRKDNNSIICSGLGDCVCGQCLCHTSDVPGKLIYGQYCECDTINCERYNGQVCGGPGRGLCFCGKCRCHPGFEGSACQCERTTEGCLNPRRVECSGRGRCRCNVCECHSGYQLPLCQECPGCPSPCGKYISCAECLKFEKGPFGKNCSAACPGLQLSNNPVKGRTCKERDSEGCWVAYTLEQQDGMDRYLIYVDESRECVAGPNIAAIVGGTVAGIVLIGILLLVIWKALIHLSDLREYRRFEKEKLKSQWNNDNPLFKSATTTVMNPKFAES

Sequence of human WT LFA-1 (alpha L beta 2) on cells, activation state not specified at the place cited (human) (P20701 26-1170, chain 1 of 2): as the sequence (P20701 26-1170, chain 1 of 2) above
Sequence of human WT LFA-1 (alpha L beta 2) on cells, activation state not specified at the place cited (human) (P05107 23-769, chain 2 of 2, further chain): as the sequence (P05107 23-769, chain 2 of 2, further chain) above

A Cy3+ K562 cells/Total K562 cells, % (in vivo Cy3-siRNA delivery, SCID mouse lung, flow cytometry) [1] of 4.2% and a Cy3+ K562 cells/Total K562 cells, % (in vivo Cy3-siRNA delivery, SCID mouse lung, flow cytometry) [2] of 4.7% were found for “ML39-protamine fusion protein (control scFv-PF fusion protein that recognizes human ErbB2)” in this work.
A Cy3+ K562 cells/Total K562 cells, % (in vivo Cy3-siRNA delivery, SCID mouse lung, flow cytometry) [1] of 88.1%, a Cy3-siRNA delivery to PBMC subsets (flow cytometry), Cy3+ T and B lymphocytes [3] of 1 to 2% and a Cy3+ K562 cells/Total K562 cells, % (in vivo Cy3-siRNA delivery, SCID mouse lung, flow cytometry) [2] of 23.3% were found for “AL-57-protamine fusion protein (scFv AL-57 fused to truncated human protamine, residues 8-29, His6 tag) (from UniProt P04553 8-29)” in this work.
A Cy3+ K562 cells/Total K562 cells, % (in vivo Cy3-siRNA delivery, SCID mouse lung, flow cytometry) [1] of 87.4% and a Cy3+ K562 cells/Total K562 cells, % (in vivo Cy3-siRNA delivery, SCID mouse lung, flow cytometry) [2] of 88.5% were found for “TS1/22-protamine fusion protein (scFv TS1/22 fused to human protamine residues 8-29, His6 tag) (from UniProt P04553 8-29)” in this work.
